Data from patent US20250332261A1.

Molecular target: human epidermal growth factor receptor 1 (EGFR1) (human) (UniProt P00533)
Experiment: tritium-labelled compound 5 µg/ml, 3 h +37 °C, FaDu cells, scintillation counting of lysate; internalized plus surface-bound; mean of three ± S.D.; negative control

With “Control-mAb (omalizumab, anti-IgE) (antibody)” the % internalized/100000 cells (% internalized/100000 cells) was 0.01.
